Experiments:
[1] = molecular target: T1, Programmed Death 1 (PD-1) (UniProt Q15116 25-167, limits assumed); assay: rank among the 16 humanized clones by FACS data (order agrees with the 200 ng/ml bars of FIGURE 4, 1 = highest)
[2] = molecular target: T2, PD-1 on PD-1-expressing 300.19 cells (UniProt Q15116 25-288, limits assumed); assay: rank among the 16 humanized clones in competition binding against labeled murine mAb BAP049, 1st exp. (FIGURE 6A)
T2 construct: whole, on cells

[3] = molecular target: T2, PD-1 on PD-1-expressing 300.19 cells; assay: rank among the 16 humanized clones in competition binding against labeled murine mAb BAP049, 2nd exp. (FIGURE 6B)
[4] = molecular target: T1, Programmed Death 1 (PD-1); assay: FACS ligand blocking: mAb titrated, signal of ligand-Ig bound to PD-1; legend paragraph 46 names PD-L1-Ig and PD-L2-Ig as blocked ligands for FIG. 8A; cells not named

T1 sequence (Q15116 25-167 limits assumed): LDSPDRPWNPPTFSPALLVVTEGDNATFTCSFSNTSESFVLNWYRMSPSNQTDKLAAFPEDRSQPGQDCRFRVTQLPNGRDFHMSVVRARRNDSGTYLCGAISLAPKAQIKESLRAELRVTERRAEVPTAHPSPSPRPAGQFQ
T2 sequence (Q15116 25-288 limits assumed): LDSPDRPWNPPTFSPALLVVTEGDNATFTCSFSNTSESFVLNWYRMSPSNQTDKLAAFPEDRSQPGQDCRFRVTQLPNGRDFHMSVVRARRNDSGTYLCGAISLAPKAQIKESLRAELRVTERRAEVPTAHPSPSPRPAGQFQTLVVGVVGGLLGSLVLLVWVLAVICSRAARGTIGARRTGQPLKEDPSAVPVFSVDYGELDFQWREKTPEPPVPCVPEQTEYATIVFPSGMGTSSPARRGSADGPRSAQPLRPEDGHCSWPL

Binder	Competition Binding 1st exp. [2]	Competition Binding 2nd exp. [3]	Ranking FACS data [1]	IC50 (read off the curve) [4]
BAP049-hum02 (antibody, human IgG4 S228P, kappa, V domains shown, also called Clone No. 2) VH: EVQLVQSGAEVKKPGESLRISCKGSGYTFTTYWMHWVRQATGQGLEWMGNIYPGTGGSNFDEKFKNRVTITADKSTSTAYMELSSLRSEDTAVYYCTRWTTGTGAYWGQGTTVTVSS VL: DIQMTQSPSSLSASVGDRVTITCKSSQSLLDSGNQKNFLTWYQQKPGQAPRLLIYWASTRESGIPPRFSGSGYGTDFTLTINNIESEDAAYYFCQNDYSYPYTFGQGTKVEIKR	3	2	6	
BAP049-hum10 (antibody, human IgG4 S228P, kappa, Humanized mAb) heavy: not shown light: EIVLTQSPATLSLSPGERATLSCKSSQSLLDSGNQKNFLTWYQQKPGQAPRLLIYWASTRESGVPSRFSGSGSGTDFTFTISSLEAEDAATYYCQNDYSYPYTFGQGTKVEIKRTVAAPSVFIFPPSDEQLKSGTASVVCLLNNFYPREAKVQWKVDNALQSGNSQESVTEQDSKDSTYSLSSTLTLSKADYEKHKVYACEVTHQGLSSPVTKSFNRGEC	6	> 4	7	~1 µg/mL
BAP049-hum11 (antibody, human IgG4 S228P, kappa, Humanized mAb) heavy: not shown light: EIVLTQSPATLSLSPGERATLSCKSSQSLLDSGNQKNFLTWYQQKPGQAPRLLIYWASTRESGVPSRFSGSGSGTDFTFTISSLEAEDAATYYCQNDYSYPYTFGQGTKVEIKRTVAAPSVFIFPPSDEQLKSGTASVVCLLNNFYPREAKVQWKVDNALQSGNSQESVTEQDSKDSTYSLSSTLTLSKADYEKHKVYACEVTHQGLSSPVTKSFNRGEC	4	> 4	6	
BAP049-hum08 (antibody, human IgG4 S228P, kappa, Humanized mAb) heavy: not shown light: EIVLTQSPDFQSVTPKEKVTITCKSSQSLLDSGNQKNFLTWYQQKPGQAPRLLIYWASTRESGVPSRFSGSGSGTDFTFTISSLEAEDAATYYCQNDYSYPYTFGQGTKVEIKRTVAAPSVFIFPPSDEQLKSGTASVVCLLNNFYPREAKVQWKVDNALQSGNSQESVTEQDSKDSTYSLSSTLTLSKADYEKHKVYACEVTHQGLSSPVTKSFNRGEC	7	4	7	
BAP049-hum04 (antibody, human IgG4 S228P, kappa, V domains shown, also called Clone No. 4) VH: EVQLVQSGAEVKKPGESLRISCKGSGYTFTTYWMHWIRQSPSRGLEWLGNIYPGTGGSNFDEKFKNRFTISRDNSKNTLYLQMNSLRAEDTAVYYCTRWTTGTGAYWGQGTTVTVSS VL: EIVLTQSPATLSLSPGERATLSCKSSQSLLDSGNQKNFLTWYQQKPGKAPKLLIYWASTRESGVPSRFSGSGSGTDFTFTISSLQPEDIATYYCQNDYSYPYTFGQGTKVEIKR	15	15	14	
BAP049-hum05 (antibody, human IgG4 S228P, kappa, V domains shown, Humanized mAb) VH: EVQLVQSGAEVKKPGESLRISCKGSGYTFTTYWMHWVRQATGQGLEWMGNIYPGTGGSNFDEKFKNRVTITADKSTSTAYMELSSLRSEDTAVYYCTRWTTGTGAYWGQGTTVTVSS VL: EIVLTQSPATLSLSPGERATLSCKSSQSLLDSGNQKNFLTWYQQKPGKAPKLLIYWASTRESGVPSRFSGSGSGTDFTFTISSLQPEDIATYYCQNDYSYPYTFGQGTKVEIKR	5	> 4	5	~1 µg/mL
BAP049-hum01 (antibody, human IgG4 S228P, kappa, V domains shown, Humanized mAb) VH: EVQLVQSGAEVKKPGESLRISCKGSGYTFTTYWMHWVRQATGQGLEWMGNIYPGTGGSNFDEKFKNRVTITADKSTSTAYMELSSLRSEDTAVYYCTRWTTGTGAYWGQGTTVTVSS VL: EIVLTQSPATLSLSPGERATLSCKSSQSLLDSGNQKNFLTWYQQKPGQAPRLLIYWASTRESGVPSRFSGSGSGTEFTLTISSLQPDDFATYYCQNDYSYPYTFGQGTKVEIKR	7	2	2	~1 µg/mL
Chi mAb (Tyr) (antibody, human IgG4 S228P, kappa, V domains shown, also called BAP049-chi-Y; Chi (Tyr)) VH: QVQLQQSGSELVRPGASVKLSCKASGYTFTTYWMHWVRQRPGQGLEWIGNIYPGTGGSNFDEKFKNRTSLTVDTSSTTAYMHLASLTSEDSAVYYCTRWTTGTGAYWGQGTTVTVSS VL: DIVMTQSPSSLTVTAGEKVTMSCKSSQSLLDSGNQKNFLTWYQQKPGQPPKLLIFWASTRESGVPDRFTGSGSVTDFTLTISSVQAEDLAVYYCQNDYSYPYTFGQGTKVEIKR				~0.8 µg/mL
murine anti-PD-1 mAb BAP049 (antibody, V domains shown, the murine constant regions are not described; also called Mu mAb; murine mAb BAP049) VH: QVQLQQSGSELVRPGASVKLSCKASGYTFTTYWMHWVRQRPGQGLEWIGNIYPGTGGSNFDEKFKNRTSLTVDTSSTTAYMHLASLTSEDSAVYYCTRWTTGTGAYWGQGTLVTVSA VL: DIVMTQSPSSLTVTAGEKVTMSCKSSQSLLDSGNQKNFLTWYQQKPGQPPKLLIFWASTRESGVPDRFTGSGSVTDFTLTISSVQAEDLAVYYCQNDYSYPCTFGGGTKLEIK				~0.6 µg/mL
BAP049-hum03 (antibody, human IgG4 S228P, kappa, V domains shown, also called Clone No. 3) VH: EVQLVQSGAEVKKPGESLRISCKGSGYTFTTYWMHWIRQSPSRGLEWLGNIYPGTGGSNFDEKFKNRFTISRDNSKNTLYLQMNSLRAEDTAVYYCTRWTTGTGAYWGQGTTVTVSS VL: DIQMTQSPSSLSASVGDRVTITCKSSQSLLDSGNQKNFLTWYQQKPGQAPRLLIYWASTRESGIPPRFSGSGYGTDFTLTINNIESEDAAYYFCQNDYSYPYTFGQGTKVEIKR	8	14	7	

Continued, in another order:

Competition Binding 1st exp. [2]	Competition Binding 2nd exp. [3]	Binder	Ranking FACS data [1]	IC50 (read off the curve) [4]
8	16	BAP049-hum12 (antibody, human IgG4 S228P, kappa, V domains shown, also called Clone No. 12) VH: EVQLVQSGAEVKKPGESLRISCKGSGYTFTTYWMHWVRQATGQGLEWMGNIYPGTGGSNFDEKFKNRVTITADKSTSTAYMELSSLRSEDTAVYYCTRWTTGTGAYWGQGTTVTVSS VL: DIQMTQSPSSLSASVGDRVTITCKSSQSLLDSGNQKNFLTWYLQKPGQSPQLLIYWASTRESGVPSRFSGSGSGTDFTFTISSLEAEDAATYYCQNDYSYPYTFGQGTKVEIKR	3	
7	> 4	BAP049-hum07 (antibody, human IgG4 S228P, kappa, also called Clone No. 7) heavy chain: not shown light chain: EIVLTQSPATLSLSPGERATLSCKSSQSLLDSGNQKNFLTWYQQKPGKAPKLLIYWASTRESGVPSRFSGSGSGTDFTFTISSLEAEDAATYYCQNDYSYPYTFGQGTKVEIKRTVAAPSVFIFPPSDEQLKSGTASVVCLLNNFYPREAKVQWKVDNALQSGNSQESVTEQDSKDSTYSLSSTLTLSKADYEKHKVYACEVTHQGLSSPVTKSFNRGEC	4	
7	15	BAP049-hum14 (antibody, human IgG4 S228P, kappa, also called Clone No. 14) heavy chain: not shown light chain: EIVLTQSPATLSLSPGERATLSCKSSQSLLDSGNQKNFLTWYQQKPGQAPRLLIYWASTRESGVPSRFSGSGSGTDFTFTISSLEAEDAATYYCQNDYSYPYTFGQGTKVEIKRTVAAPSVFIFPPSDEQLKSGTASVVCLLNNFYPREAKVQWKVDNALQSGNSQESVTEQDSKDSTYSLSSTLTLSKADYEKHKVYACEVTHQGLSSPVTKSFNRGEC	16	
7	15	BAP049-hum15 (antibody, human IgG4 S228P, kappa, also called Clone No. 15) heavy chain: not shown light chain: EIVLTQSPDFQSVTPKEKVTITCKSSQSLLDSGNQKNFLTWYQQKPGQAPRLLIYWASTRESGVPSRFSGSGSGTDFTFTISSLEAEDAATYYCQNDYSYPYTFGQGTKVEIKRTVAAPSVFIFPPSDEQLKSGTASVVCLLNNFYPREAKVQWKVDNALQSGNSQESVTEQDSKDSTYSLSSTLTLSKADYEKHKVYACEVTHQGLSSPVTKSFNRGEC	6	
16	15	BAP049-hum16 (antibody, human IgG4 S228P, kappa, V domains shown, also called Clone No. 16) VH: EVQLVQSGAEVKKPGESLRISCKGSGYTFTTYWMHWVRQAPGQGLEWMGNIYPGTGGSNFDEKFKNRFTISRDNSKNTLYLQMNSLRAEDTAVYYCTRWTTGTGAYWGQGTTVTVSS VL: EIVLTQSPDFQSVTPKEKVTITCKSSQSLLDSGNQKNFLTWYQQKPGQAPRLLIYWASTRESGVPSRFSGSGSGTDFTFTISSLEAEDAATYYCQNDYSYPYTFGQGTKVEIKR	15	
2	4	BAP049-hum09 (antibody, human IgG4 S228P, kappa, Humanized mAb) heavy: not shown light: EIVLTQSPDFQSVTPKEKVTITCKSSQSLLDSGNQKNFLTWYQQKPGQAPRLLIYWASTRESGVPSRFSGSGSGTDFTFTISSLEAEDAATYYCQNDYSYPYTFGQGTKVEIKRTVAAPSVFIFPPSDEQLKSGTASVVCLLNNFYPREAKVQWKVDNALQSGNSQESVTEQDSKDSTYSLSSTLTLSKADYEKHKVYACEVTHQGLSSPVTKSFNRGEC	7	
7	3	BAP049-hum06 (antibody, human IgG4 S228P, kappa, also called Clone No. 6) heavy chain: not shown light chain: DIVMTQTPLSLPVTPGEPASISCKSSQSLLDSGNQKNFLTWYQQKPGQAPRLLIYWASTRESGVPSRFSGSGSGTDFTFTISSLEAEDAATYYCQNDYSYPYTFGQGTKVEIKRTVAAPSVFIFPPSDEQLKSGTASVVCLLNNFYPREAKVQWKVDNALQSGNSQESVTEQDSKDSTYSLSSTLTLSKADYEKHKVYACEVTHQGLSSPVTKSFNRGEC	1	
1	1	BAP049-hum13 (antibody, human IgG4 S228P, kappa, also called Clone No. 13) heavy chain: not shown light chain: DVVMTQSPLSLPVTLGQPASISCKSSQSLLDSGNQKNFLTWYQQKPGKAPKLLIYWASTRESGVPSRFSGSGSGTDFTFTISSLEAEDAATYYCQNDYSYPYTFGQGTKVEIKRTVAAPSVFIFPPSDEQLKSGTASVVCLLNNFYPREAKVQWKVDNALQSGNSQESVTEQDSKDSTYSLSSTLTLSKADYEKHKVYACEVTHQGLSSPVTKSFNRGEC	6	

Source: patent US20190175609A1 (Novartis, published 2019)
